The results in this text go back to US20240174744A1 (SCIRHOM, published 2024).

Changes are numbered by the printed parent chain.

Sequences and labels used below:
B1: antibody 16 (antibody, V domains shown)
VH: QVTLKESGPGILQPSQTLSLTCSFSGFSLSTFALGVGWIRQPSGRGLEWLAHIWWDDDKYYNPALKSRLTISKDTSKNHVFLKIANVDTADTATYYCARITTYYYGMDYWGQGTSVTVSS
VL: DIVLSQSPATLSVTPGDSVSLFCRASQSIGNHLHWYQQESHASPRLLIKYASQSISGIPSRFSGSGSGTDFTLSINSVETEDFGMYFCQQSYNWPLTFGAGTKLELK
notes: Mouse IgG, kappa light chain; also called clone #16; m16
B2: antibody 34 (antibody, V domains shown)
VH: QVTLKESGPGILQPSQTLSLTCSFSGFSLSTFSLGVGWIRQSSGKGLEWLAHIWWDDEKYYNPALKSRLTISKDTSKNQVFLKIANVDAADTATYYCARAYYSKSYYALDYWGQGTSVTVSS
VL: DIQMTQSPSSLSASLGERVSLTCRASQEISGYLSWLQQKPDGTIKRLIYAASTLDSGVPKRFSGSRSGSDYSLAISSLESEDFADYYCLQYANFPFTFGSGTKLEIK
notes: Mouse IgG, kappa light chain; also called clone #34; m34
B3: antibody 43 (antibody, V domains shown)
VH: QVALKESGPGILQPSQTLSLTCSFSGFSLSTFGMGVGWIRQSSGKGLEWLANIWWDDDKYYNPALKSRLTISKDASKNQAFLKIANVDTADTATYYCARIGNYGSNYWYFDVWGTGTTVTVSS
VL: QIVLTQSPAIMSASPGERVTMTCSANSRISYMYWYQQKPGSSPRLLIYDTSNLASGVPVRFSGSGSGTSYSLTISRMEAEDAATYNCQQWSSYPLTFGAGTKLELK
notes: Mouse IgG, kappa light chain; also called clone #43
B4: antibody 5 (antibody, V domains shown)
VH: B3 VH with A3T, S42P, N52H, D58E, P63S, D74A, A75T, G101S, D111N
VL: QVVLTQSPALMSASPGEKVTMTCSAGSSVSCMYWYQQKPGSSPRVLIYDTSNLASGVPARFTGSGSGTSYSLTISRMEAEDAASYYCQQWNSYPLTFGAGTKLELK
notes: Mouse IgG, kappa light chain; also called clone #5; purified antibody 5
B5: antibody 42 (antibody, V domains shown)
VH: B3 VH with A3T, F24L, M34R, S42P, N52H, D58E, A75T, A80V, K83R, G101Q
VL: B3 VL with Q1L, R18K, S24G, N26T, Y33F, L45V, M77V, A82V, N86Y, S91N
notes: Mouse IgG, kappa light chain; also called clone #42; m42
B6: antibody 44 (antibody, V domains shown)
VH: B3 VH with A3T, S42P, G44E, N52H, A75T, A80I, A85T, D91E, A98S
VL: QIVLTQSPAVMSASPGEKVTMTCTASSSVYYMYWYQQTPGSSPRLLIYDTSNLASGVPVRFSGSGSGTSYSLTISRMEAEDAATYYCQQWNTYPLTFGAGTKLELK
notes: Mouse IgG, kappa light chain; also called clone #44; m44
B7: antibody 22 (antibody, V domains shown)
VH: B3 VH with A3T, S42P, N52H, D58E, P63S, D74A, A75T, A80V, G101S, D111N
VL: B4 VL with C31Y, S84T
notes: Mouse IgG, kappa light chain; also called clone #22; m22
B8: antibody 50 (antibody, V domains shown)
VH: QVQLQQSGAELVRPGASVKVSCKASGYAFSNYLIEWVKQRPGQGLEWIGVINPGSGFTKYNEKFKGKATLTADKSSSTAYMQLSSLTSEDSAVYFCARGLYRAMDYWGQGTSVTVSS
VL: DIQMTQSPASQSASLGESVTITCLASQTIGTWLAWYQQKPGKSPQLLIYAAASLADGVPSRFSGGGSGTKFSFKISSLQAEDFVNYYCQQIYSTPYTFGGGTKLEIK
notes: Mouse IgG, kappa light chain; also called clone #50; purified antibody 50
B9: antibody 3 (antibody, V domains shown)
VH: QVTLKESGPGILQPSQTLSLTCSFSGFSLTTFAMGIGWVRQPSGKGLEWLAHIWWDGEKYNNPVLKSRLTISKDTSKNQVFLRIANVDTPDTATYYCARISSIYYIIDNWGQGTSVTVSS
VL: B1 VL with S5T, D17H, F22S, G30S, H32N, Q38K, E39K, A42E, A51V
notes: Mouse IgG, kappa light chain; also called clone #3; purified antibody 3

One assay has as its target T1, hiR2-FL-P533-T7 (human iRhom2 full length with deletion of P533, 3 x T7 tag) (human, UniProt Q6PJF5 1-856).
T1 construct: The change is a deletion of one residue, not a substitution
T1 sequence: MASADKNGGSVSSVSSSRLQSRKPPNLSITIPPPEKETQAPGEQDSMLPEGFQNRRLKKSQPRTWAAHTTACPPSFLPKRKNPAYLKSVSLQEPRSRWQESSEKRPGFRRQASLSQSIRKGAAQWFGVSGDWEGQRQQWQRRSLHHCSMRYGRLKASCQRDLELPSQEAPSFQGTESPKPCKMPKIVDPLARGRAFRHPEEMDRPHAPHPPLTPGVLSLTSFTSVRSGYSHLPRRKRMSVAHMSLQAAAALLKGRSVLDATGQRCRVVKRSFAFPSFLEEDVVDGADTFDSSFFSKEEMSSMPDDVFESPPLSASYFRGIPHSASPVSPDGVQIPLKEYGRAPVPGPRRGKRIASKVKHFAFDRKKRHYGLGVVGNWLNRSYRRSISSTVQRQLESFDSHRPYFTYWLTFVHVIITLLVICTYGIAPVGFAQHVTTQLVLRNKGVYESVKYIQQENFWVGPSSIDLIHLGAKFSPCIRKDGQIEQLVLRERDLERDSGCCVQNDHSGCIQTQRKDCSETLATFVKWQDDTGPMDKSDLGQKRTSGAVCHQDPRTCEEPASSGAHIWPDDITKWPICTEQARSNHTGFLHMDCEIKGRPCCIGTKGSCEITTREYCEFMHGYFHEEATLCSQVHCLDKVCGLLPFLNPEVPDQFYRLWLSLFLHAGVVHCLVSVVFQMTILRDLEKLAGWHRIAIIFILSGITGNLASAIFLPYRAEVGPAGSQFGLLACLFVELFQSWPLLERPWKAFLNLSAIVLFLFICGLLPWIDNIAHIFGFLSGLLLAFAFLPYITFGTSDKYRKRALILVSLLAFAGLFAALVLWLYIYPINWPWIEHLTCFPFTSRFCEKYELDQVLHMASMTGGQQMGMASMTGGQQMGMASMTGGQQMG
Put plainly: FACS on cells of the row P533-.
Take B1: the binding result was “no binding (tested: 3 µg/ml)”.

Take B2: the binding result is “no binding (tested: 3 µg/ml)”.

For B3, the binding result is recorded as “no binding (tested: 3 µg/ml)”.

As for B4, the binding result is reported as “no binding (tested: 3 µg/ml)”.

For the molecule B5, the binding result is “no binding (tested: 3 µg/ml)”.

Regarding B6, the binding result is recorded as “no binding (tested: 3 µg/ml)”.

As for B7, the binding result was “no binding (tested: 3 µg/ml)”.

In another assay the target is T2, hiR1-FL-WT-T7 (human iRhom1 full length wild type C-terminally tagged with 3 consecutive copies of the T7 … (human, UniProt Q96CC6 1-855)).
T2 construct: also called human iRhom1 variant expressed by MEF-DKO-hiR1-FL-WT-T7 cells
T2 sequence: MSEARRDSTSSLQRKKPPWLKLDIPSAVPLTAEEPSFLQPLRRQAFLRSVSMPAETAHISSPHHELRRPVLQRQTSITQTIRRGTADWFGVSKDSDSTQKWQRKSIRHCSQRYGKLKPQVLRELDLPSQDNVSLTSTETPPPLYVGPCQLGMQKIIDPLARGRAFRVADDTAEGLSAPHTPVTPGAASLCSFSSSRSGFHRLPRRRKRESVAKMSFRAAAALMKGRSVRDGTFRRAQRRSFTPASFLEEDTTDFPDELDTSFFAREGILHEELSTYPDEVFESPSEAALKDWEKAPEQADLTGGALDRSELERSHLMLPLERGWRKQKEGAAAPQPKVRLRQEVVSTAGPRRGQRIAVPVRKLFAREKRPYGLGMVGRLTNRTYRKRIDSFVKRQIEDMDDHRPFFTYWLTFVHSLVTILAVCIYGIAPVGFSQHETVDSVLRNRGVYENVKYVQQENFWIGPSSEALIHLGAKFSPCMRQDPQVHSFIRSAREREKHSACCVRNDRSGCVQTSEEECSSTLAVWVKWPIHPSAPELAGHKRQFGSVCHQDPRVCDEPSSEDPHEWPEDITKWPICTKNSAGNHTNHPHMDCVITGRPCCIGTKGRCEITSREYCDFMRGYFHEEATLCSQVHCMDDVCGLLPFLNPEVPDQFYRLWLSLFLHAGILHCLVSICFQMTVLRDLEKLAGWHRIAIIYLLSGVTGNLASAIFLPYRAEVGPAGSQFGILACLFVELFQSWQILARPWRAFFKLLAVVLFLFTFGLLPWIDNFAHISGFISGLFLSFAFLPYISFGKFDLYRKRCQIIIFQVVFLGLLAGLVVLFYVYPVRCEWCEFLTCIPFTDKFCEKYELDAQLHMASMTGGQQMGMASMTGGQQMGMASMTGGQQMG
Put plainly: FACS on cells of the row human iR1 wild type.
Regarding B1, the binding result was “no binding (tested: 3 µg/ml)”.

As to B2, the binding result is listed as “no binding (tested: 3 µg/ml)”.

For the molecule B8, the binding result is listed as “no binding (tested: 3 µg/ml)”.

B3: the binding result is given as “no binding (tested: 3 µg/ml)”.

Turning to B4, the binding result is on record as “no binding (tested: 3 µg/ml)”.

Turning to B5, the binding result was “no binding (tested: 3 µg/ml)”.

As to B6, the binding result is given as “no binding (tested: 3 µg/ml)”.

As for B7, the binding result is “no binding (tested: 3 µg/ml)”.

A further assay concerns the target T2, hiR1-FL-WT-T7 (human iRhom1 full length …). In words: FACS on cells of the row human iR1 wild type, vs human iR2 wild type = 100%.
With B1, the “grade of loss of binding vs wild type” value was 3 grade (3 => 95% loss of binding vs wild type).

With B9, the “grade of loss of binding vs wild type” value is 3 grade (3 => 95% loss of binding vs wild type).

Consider B2, for which the “grade of loss of binding vs wild type” value was 3 grade (3 => 95% loss of binding vs wild type).

B8: the “grade of loss of binding vs wild type” value was 3 grade (3 => 95% loss of binding vs wild type).

On to B3, for which the “grade of loss of binding vs wild type” value was 3 grade (3 => 95% loss of binding vs wild type).

With B4, the “grade of loss of binding vs wild type” value was 3 grade (3 => 95% loss of binding vs wild type).

Take B5: the “grade of loss of binding vs wild type” value was 3 grade (3 => 95% loss of binding vs wild type).

As for B6, the “grade of loss of binding vs wild type” value is 3 grade (3 => 95% loss of binding vs wild type).

In the case of B7, the “grade of loss of binding vs wild type” value is 3 grade (3 => 95% loss of binding vs wild type).
